Results from patent US7809428B2, “Devices for detection and therapy of atheromatous plaque” (The General Hospital Corporation, priority 2001, dated 2010).

What was measured:
[1] = test system: aortic and iliac plaque of atherosclerotic rabbits; assay: Intimal surface fluorescence by OMA-LIF system; assay type: in vivo, rabbit
From the text: The second measurement of intimal surface fluorescence was made by the OMA-LIF system described above. At least 15 separate fluorescence measurements were taken from each artery segment. In addition, the iliac artery through which the balloon was passed also sustained an injury due to its relatively small diameter compared to aortic section 5 and, therefore, developed atherosclerosis compared to the uninjured iliac artery. […] Sections 3, 4 and injured iliac of atherosclerotic compared to normal control had p values<0.0001, while section 5 and uninjured iliacs had p values<0.0005. Accordingly, the less severe plaques of section 5 are distinguishable from the macrophage-rich plaques of sections 3 and 4.
In FIG. 14a, a marked contrast was seen between a large aortic plaque and an area of the abdominal aorta 5 mm beneath the plaque. In FIG. 14b, another marked contrast was seen between the balloon injured iliac artery and the contralateral normal artery in the same rabbit. […] These spectra were obtained in a rabbit that had received an overdose of anesthesia. […] By palpation of the outside of the artery, the position of the catheter in relation to plaques was determined Thus, a novel method has been developed for targeting a photosensitizer composition to the activated macrophages of a vulnerable plaque with high specificity.

[2] = test system: aortic plaque of atherosclerotic rabbits; conditions: rabbit, in vivo
Experimental: For confocal fluorescence microscopy, selected parts of the aortas were snap frozen in liquid nitrogen and approximately 10-20 μm frozen sections were prepared. These sections underwent laser scanning confocal fluorescence microscopy to detect the tissue distribution of the ce6. The red intracellular fluorescence from ce6 together with green tissue auto-fluorescence was imaged in the cells in 10 μm frozen sections. Sections were examined with a laser scanning confocal fluorescence microscope. A Leica DMR confocal laser fluorescence microscope (Leica Mikroskopie und Systeme GmbH, Wetzler, Germany)(excitation 488 nm argon laser) and 4×−40× air immersion lens or a 100× oil immersion objective was used to image at a resolution of 1024×1024 pixels. […] These channels were overlaid using TCS NT software (Version 1.6.551, Leica Lasertechnik, Heidelberg, Germany) to allow visualization of overlap of red and green fluorescence. These sections were also stained by immunohistochemistry using macrophage specific monoclonal antibodies and conventional H&E staining. Other parts of normal and atherosclerotic aorta were cut into small pieces, weighed and dissolved in sodium hydroxide/SDS and the tissue content of ce6 was determined by spectrofluorimetry as previously described (Hamblin et al (2000) Br. J. Cancer 83:1544). […]

[3] = test system: balloon-injured abdominal aorta plaque; assay: In vivo photodynamic therapy of rabbit aorta through flowing blood
Experimental: Animals (one atherosclerotic and one normal rabbit, each injected with Mal-BSA-ce6 24 hours previously; and one atherosclerotic rabbit that received no injection) were anesthetized as before and a cylindrical diffusing tipped fiber optic (length of tip=2 cm, diameter=1 mm) was advanced to a position midway along the balloon-injured abdominal aorta. […] Light was delivered at a fluence rate of approximately 100 mW/cm of diffusing tip and a total fluence of approximately 100 J/cm was delivered. At the conclusion of the illumination, the fiber was withdrawn and the arteriotomy and overlying wound were closed. Animals were sacrificed 48 hours later. […] Complete aortas and iliac arteries were removed from the PDT treated normal and atherosclerotic rabbits and control (no Mal-BSA-ce6 injection) atherosclerotic rabbit and were examined by histology using H&E, Masson Trichrome and Verhoeffs stain.

[4] = test system: experimental atherosclerotic lesions of the aorta; assay type: in vivo, rabbit
Experimental: Male New Zealand White rabbits weighing 2.5-3.0 kg (Charles River Breeding Laboratories) were maintained on a 2% cholesterol-6% peanut oil diet (ICN) for 3 months. […] The femoral artery was then ligated, and the wound closed. The animals were allowed to recover from anesthesia and then returned to their cages.
Two to four millicuries of the ^99mTc-Ap4A-glucoheptonate, ^99mTc-AppCHClppA-glucoheptonate, or ^99mTc-glucoheptonate (control) was injected into marginal ear veins of groups of three rabbits with experimental atherosclerotic lesions. As a control, three unlesioned animals were injected with 2-4 mCi of ^99mTc-Ap4A-glucoheptonate. After radiopharmaceutical administration, serial gamma images were collected every minute for the first 5 minutes, every 2 minutes for the next 25 minutes, and every 5 minutes for the next 2.5 hours. In all of the rabbits, images were acquired in the anterior and lateral decubitus projections, including the heart and aorta, by using a standard field-of-view gamma camera (Series 100, Ohio Nuclear, Solon, Ohio) equipped with a high-resolution parallel-hole collimator and interfaced with a dedicated computer system (Technicare 560, Solon, Ohio). The pulse height analyzer was adjusted to record the 140 KeV photopeak of ^99mTc, and all images were recorded in a 256×256 matrix.
After acquiring the final images, the animals were sacrificed with an overdose of sodium pentobarbital. The aortas were removed, opened along the ventral surface, and mounted on styrofoam blocks. The aortas then were placed on the face of the gamma camera and ex vivo images were recorded for 10 minutes.

[5] = test system: J774 or RAW264.7 mouse macrophage-like cells versus non-target EMT-6 cells; assay: Cellular uptake of conjugates and free ce6; assay type: cell-based; conditions: J774 and EMT-6 cells
Experimental: J774.A1 (J774) and RAW 264.7 mouse macrophage-like cell lines, together with EMT-6 mouse mammary […] cells, were obtained from ATCC (Rockville, Md.). Cells were grown in RPMI 1640 media containing HEPES, glutamine, 10% fetal calf serum (FCS), 100 U/ml penicillin and 100 μg/ml streptomycin. They were passaged by washing with phosphate buffered saline (PBS) without Ca^2+ and Mg^2+ and by adding trypsin-EDTA to the plate for 10 minutes at 37° C.
For cellular uptake studies, cells were grown to approximately 90% confluency in twenty-four well plates and the conjugate or photosensitizer was added in about 1 ml medium containing approximately 10% serum to each well. […] The trypsin supernatant was checked for the presence of fluorescence to quantify any surface binding which might easily be removed by trypsin. The fluorescence was measured using an excitation wavelength of 400 nm and the emission scanned from 580 to 700 nm in order to calculate the peak area (λmax=664 nm). A series of dilutions in approximately 1.5 ml 0.1M NaOH/1% SDS of known concentrations of each separate conjugate and photosensitizer was scanned for fluorescence as above in order to prepare calibration curves to allow for quantitation of the ce6 by conversion of the measured peak areas into mol ce6 equivalent. […] Results were expressed as mol of ce6 per mg cell protein. […]

[6] = atherosclerotic rabbit, conjugate and light

Substance: Mal-BSA-ce6
- intimal surface fluorescence, atherosclerotic versus normal rabbit ([1]; arteries with inflamed plaque (sections 3, 4 and injured iliac, p<0.0001)): highly significant increases in fluorescence
- intimal surface fluorescence, atherosclerotic versus normal rabbit ([1]; sections 1 and 2): not significantly different
- extracted ce6 fluorescence per gram tissue, difference atherosclerotic versus normal rabbits [2]: significant
- gross damage at necropsy in illuminated aortic section or surrounding tissue ([3]; atherosclerotic rabbit, 48 hours after PDT): no gross damage visible
- histological changes in the illuminated section [3, 6]: evidence of apoptosis (pyknotic nuclei) and an inflammatory infiltrate in the plaque
- necrosis in the illuminated section (histology) [3, 6]: some coagulative necrosis
- overall effect of treatment on plaque histology [3, 6]: favorable modifications of plaque histology and reduced vulnerability
- gross damage at necropsy in surrounding tissue ([3]; normal rabbit, 48 hours after PDT): some minor damage visible in the paraaortic muscle
- histological changes ([3]; normal rabbit, photosensitizer composition and light): Histological changes were not observed
- ill effects of treatment before sacrifice ([3]; two rabbits that received composition and light, two days): no ill effects

Substance: ^99mTc-glucoheptonate
- clearance of radioactivity from all organs, t1/2s ([4]; rabbit, in vivo): 5 to 10 min
- organs in which radioactivity accumulated ([4]; rabbit, in vivo): accumulated in the kidneys and bladder
- accumulation of radioactivity in the aortic lesions ([4]; rabbits with experimental atherosclerosis): no evidence of specific accumulation in the aortic lesions

Substance: chlorin e6 [ce6]
- uptake of unbound ce6 by receptor-positive and receptor-negative cells [5]: indiscriminate uptake
